{"source": "patent US9766245B2", "about": "“Method of detecting cancer based on glycan biomarkers” (California Institute of Technology, priority 2013, dated 2017)", "molecules": {"B1": {"name": "UEAI: lectin conjugated to agarose used for affinity chromatography (protein)", "chain": "SDDLSFKFKNFSQNGKDLSFQGDASVIETGVLQLNKVGNNLPDETGGIARYIAPIHIWNCNTGEVASFITSFSFFMETSANPKAATDGLTFFLAPPDSPLRRAGGYFGLFEDTKDNDSSYQTVAVEFDTIGSPVNFDDPGFPHIGIDVNRVKSINAERWNKRYGLNNVANVEIIYEASSKTLTASLTYPSDQTSISVTSIVDLKEILPEWVSVGFSGGTYIGRQATHEVLNWYFTSNLINTNS"}}, "tested_on": "glycosylated synapsin I", "assay": "Lectin affinity chromatography with UEAI", "type": "binding, rat", "details": "olfactory bulb lysate (500 μg), Western blotting", "procedure": "Lectin Affinity Chromatography with UEAI.\nUEAI lectin conjugated to agarose (Vector Laboratories) or control protein A conjugated to agarose (Vector Laboratories) was packed into a minicolumn (50 μL bed volume; Bio-Rad), and the columns were run in parallel. The resin was equilibrated with 10 column volumes of lectin binding buffer (100 mM Tris pH 7.5, 150 mM NaCl, 1 mM CaCl2, 1 mM MgCl2, 0.5% NP-40, and 0.2% sodium deoxycholate supplemented with EDTA-free Complete™ protease inhibitors). Olfactory bulb tissue from P3 rat pups was lysed in lectin binding buffer by sonication on ice. The lysate was clarified by centrifugation at 12000×g for 10 min, and the total protein concentration was determined using the BCA protein assay (Pierce). Lysate (500 μg) was bound batch-wise with gentle end-over-end mixing at rt for 4 h. The agarose was then allowed to settle, and the flow-through was passed over the column three additional times. The columns were washed with 40 column volumes of lectin binding buffer, followed by 10 column volumes of lectin binding buffer lacking detergent. […] Following concentration, samples were boiled in 1× sample buffer (35 μL of 200 mM Tris pH 6.8, 400 mM DTT, 8% SDS, 0.2% bromophenol blue, and 40% glycerol) and analyzed by SDS-PAGE and western blotting as described above. Synapsin I was detected using mouse anti-synapsin I ascites (Synaptic Systems) at 0.1 μg/mL.", "note": "“Also recorded” adds a separate entry of the source.", "data": [{"molecule": "B1", "values": [{"measurement": "capture and detection of glycosylated synapsin I", "value": "failed to pull-down and detect glycosylated synapsin I; also recorded: failed to capture and detect glycosylated synapsin I"}]}]}
